{"source": "the DeepSol protein solubility set", "test": "soluble on expression in E. coli; label from the status in PepcDB or PDB records", "data": [{"sequence": "MAHHHHHHMLSEEEQATLLKYYSTVKLHETQMDQLAQAYWAATREERGEIAKVYAHTFVDPTFVQRLIFFHDYRMSLTAAGAGLSSSTGAAVGTGSSFAGQQSGSESANSPLMAGPPSSFMAESPTTAANHAPRRTHAQHLLRSTIQEHFPKLTGPGPYALQFGCVQSEKEREEVIELYSSQFLHPDPPELHRIVALPSSFSTRTRKRISGSYSWYLRCLATQELVCAVTVTVHQQETIRFAEMPLFATGVGYKKNGFGRLLNAALLAWCAEVGLEFIMISADVQAIPFWRHLGYRAMTRGEKNRIDFFYQHDCCKFKGAETMIGYCNVDRGNGSLSGGVGRRAFHSGGSTEVLHRSVRQVLAQLPRFVVEGPAKLPTE", "values": [{"measurement": "soluble on expression in E. coli", "value": "soluble"}]}, {"sequence": "NVQHQLAQFQQLQQQAQAISVQKQTVEMQINETQKALEELSRAADDAEVYKSSGNILIRVAKDELTEELQEKLETLQLREKTIERQEERVMKKLQEMQVNIQEAMKGAG", "values": [{"measurement": "soluble on expression in E. coli", "value": "soluble"}]}, {"sequence": "MGSDKIHHHHHHMPGRAGGCTRNTGAPVNRQDRAHAFLQRALEAQAALPVDHGLMRDLFAGTGDDSRLSLSEVGELVSRDPSLAVRILSLANSAYYGLQAEVTTVGRAVTVLGMREVRNLVLALGFSSVARMHPLPDRFCTAGYWLHQLRVAAFCRIIAAGTEDLDPEMLYTAGLLHDIGKLFIAALAPDDWLGIRRLARQESLPDCKAEERWWGLDHALAGARVLAYWQLPAALTEPISWHHGPHFADAAHARGAGAVQLADALLLAFERGTPPPAAALQLLKEYTADAGRLQMALEAQFAGERIGQLAALLG", "values": [{"measurement": "soluble on expression in E. coli", "value": "not soluble"}]}, {"sequence": "MGSDKIHHHHHHMFSDFKKDFCLANPGYLLSHSVGRPLKSTEQVFKEAFFAPWQDSGREPWGQWLSVIDDFTFALSKLFNGHQKDFCPQVNLSSALAKILMSLARLNREHAVVLMSEIDFPSMGFAIKKALPASCEVRFIPKTLDITDANVWDAHMGSDIDLVFVSHAYSNTGQQAPLANILAMARQYGCLSVVDVAQSAGIIPLNLAQLQPDFLIGSSVKWLCSGPGAAYLWVNPSIIDSCQPKDVGWFSHENPFEFNIHDFRYHNSALRFWGGTPSIAPYAIAAHSIHYFADIGVEQLRKGNQLLIDIVAEALDQEFVSPREIEKRSGTLVLQFGEQQGQIMAALAKANISVDARSMGIRISPHIYNDKADIQLLLSVIKAHR", "values": [{"measurement": "soluble on expression in E. coli", "value": "not soluble"}]}, {"sequence": "MGSDKIHHHHHHLAQLYFYYSAMNAGKSTSLLQSSYNYRERGMNTLVLTAAIDDRYGVGKVASRIGIQADATVFGSEDNLMDLIATHHSQQQLHCVLVDESQFLSKTQVRQLTDVVDKLDIPVLCYGLRSDFRGELFIGSQYLLAWADKLVELKTICFCGRKANMVVRRDGAGNPVRDGAQVAIGGNESYESMCRKHFSELVWD", "values": [{"measurement": "soluble on expression in E. coli", "value": "not soluble"}]}, {"sequence": "MPFRPQVIIGELMKTFGTNTNALPMSREETKTVEKFTRILKDAETDDLLIQSDDEEEVFGGIVDEEDWKPDDDDPSACVVPDKVNFSSGAAIDVAMVHSAVEFMTDVRTKKLRSFASMQRRYRFIKTQHDMQKLRVFAKNNEIQCSRVSQFSTLSGLLRTKVFEAIDDRISIDKFTLRRLAVQLNDEHVHIEGFQASDGWLKKWKKTNGLVSRHVTTFITRANYVNKELTEQAAKKFVEEVKAELATLDPDVVYNCDQSGFTKEQYCKRTLAPKGVKRVERLVQSKDALTHSYTILPMLSASGKLAPKLYVVLQEKGGKFPKKGHFSPDNLIIRANTSHIMNKQLMVDWVESAVCDPSMPTEVVLLLDAWPAWKNEGDVQAAALSGNTVHVRSIPPGATSFIQPCDLYFFCPLKNFVKKVNAYIIYSGITFKTSERDNLLRVISAVYRVFRAPIFQSCWKYGWIQGGYIDDQHVKVETPSKFCFKVSGYCSQKKTRDTMCQDTAFLLCPYCKKVLCFNHWVGCGFPAHKCKC", "values": [{"measurement": "soluble on expression in E. coli", "value": "not soluble"}]}, {"sequence": "MRRGSGNPERPSLSRDGLRVPPPCPGKRGPGHFSGYHGGMEGIRRAAQRAAEEFLQAFPMAPGSLFVLGGSTSEVLGERVGTRPSLEAAHAVLEGLLPPLLERGVHVAVQACEHLNRALVVERETARAFGLEEVAVFPHPKAGGALATAAFLRFRDPVMVESLKAQAHGGMDIGGVLIGMHLRPVAVPLRLSVRKIGEAVLLAAKTRPKLVGGARAVYTREEMLKKLEEFLPKPP", "values": [{"measurement": "soluble on expression in E. coli", "value": "soluble"}]}]}
